In assay [1] the target is CA IX expressed by cells (C-33a_CA IX transfectants; hypoxic BT-20, JIMT-1, 8-MG-BA and 42-MG-BA cells) (human, UniProt Q16790 38-459). Kind of assay: cell-based or functional assay.
Assay [2] addresses T1, recombinant human CA IX (human, UniProt Q16790 38-414). Kind of assay: SPR (Biacore T200), antibody captured on CM5 chip, rh CA IX in flow, 25 C. The protocol: (§1) In order to determinate the antigen-binding affinity of humanized variants, measurements of affinity constant (KD) for antibodies binding to CA IX were performed by SPR using a Biacore 2000 (T200 in case of CA9hu-2) instrument (GE Healthcare, Piscataway, NJ USA). Each humanized antibody variant was captured on the CM5 sensor chip and recombinant human CA IX (rh CA IX; 42 kDa; R&D Systems, Inc., Minneapolis MN, USA) protein as an antigen was added to the buffer flowing over the chip. The setting details of quantitative interaction analysis between humanized antibodies and rh CA IX were as follows: flow rate 30 μl/min; analysis temperature 25° C.; analysis buffer (10mM HEPES pH 7.4, 150 mM NaCl, […], 0.05% Tween 20). Results from SPR analysis are expressed as the equilibrium dissociation constant (KD) (Table 7).

Assay [3] has as its target T1, recombinant human CA IX. Kind of assay: SPR (Biacore 2000), antibody captured on CM5 chip, rh CA IX in flow, 25 C. The protocol: as §1

B1: CA9hu-2_HC3LC4 (antibody, V domains shown)
VH: QVQLVESGGGVVQPGGSLRLSCAASGFTFNTNAMHWVRQAPGRGLEWVARIRSKSNNYTTYYADSVKDRFTISRDNSKNTLYLQVNSLRAEDTAVYYCVCGSWFAYWGQGTLVTVSS
VL: DIVMTQSPDSLAVSLGERATINCKSSQSLLNSSNQKNYLAWFQQKPGQPPKVLIYFTSTRQSGVPDRFTGSGSGTDFTLTISSLQAEDVAVYYCQQHYSIPLTFGQGTKLEIK
notes: Humanized from murine IV/18; also called HC3LC4 (CA9hu-2)
As usually defined, the Kd is a measure of binding affinity in units of concentration. With B1, the “ADCC reporter luminescence, C-33a_CA IX against C-33a_neo cells” value in assay [1] was 2 times. In addition, the Kd with recombinant human CA IX [2] came to 73.1 nM.

B2: CA9hu-2_HC4LC2 (antibody, V domains shown)
VH: EVQLVESGGGVVQPGRSLRLSCAASGFTFNTNAMHWVRQAPGKGLEWVARIRSKSNNYTTYYADSVKDRFTISRDNSKNTLYLQMNSLRAEDTAVYYCVCGSWFAYWGQGTLVTVSS
VL: DIVMTQSPDSLAVSLGERATINCKSSQSLLNSSNQKNYLAWFQQKPGQPPNLVIYFTSTRQSGVPDRFSGSGSGTDFTLTINSLQAEDVAVYFCQQHYSIPLTFGQGTQVEIK
notes: Humanized from murine IV/18; also called HC4LC2 (CA9hu-2)
B2: the “ADCC reporter luminescence, C-33a_CA IX against C-33a_neo cells” value in assay [1] worked out at 2 times. The equilibrium dissociation constant (Kd) with recombinant human CA IX [2] is 32.7 nM.

B3: CA9hu-1_HC5LC3 (antibody, V domains shown)
VH: EVQLVESGGGLVQPGGSLRLSCAASGFTFTDYYMHWVRQAPGKGLEWVGFIRNKASGYTPQYSASVKGRFTISRDDSKNSLYLQMNSLKTEDTAVYYCVRGGHAGSNYWYFDVWGQGTMVTVSS
VL: DIQMTQSPSSLSASVGDRVTITCHVSQNINVWLSWYQQKPGEAPKLLIYQASNLHTGVPSRFSGSGSGTDFTLTISSLQPEDFATYYCQQGQSYPFTFGQGTKLEIK
notes: Humanized from murine VII/20; also called HC5LC3 (CA9hu-1)
Regarding B3, the Kd with recombinant human CA IX [3] came to 56 nM.

B4: CA9hu-1_HC2LC1 (antibody, V domains shown)
VH: EVRLVESGGGLVQPGGSLRLSCAASGFTFTDYYMHWVRQAPGKGLEWLGFIRNKASGYTPQYSASVKGRFTISRDDSTNSLYLQMNSLKTEDTAIYYCVRGGHAGSNYWYFDVWGQGTLVTVSS
VL: DIQMTQSPSSLSASVGDRVTITCHVSQNINVWLSWYQQKPGKAPNLLIYQASNLHTGVPSRFSGSGSGTHFTLTISSLQPEDIATYYCQQGQSYPFTFGGGTKVEIK
notes: Humanized from murine VII/20; also called HC2LC1 (CA9hu-1)
Regarding B4, in the assay with recombinant human CA IX [3], the Kd amounted to 60 nM.

B5: CA9hu-1_HC2LC4 (antibody, V domains shown)
VH: EVRLVESGGGLVQPGGSLRLSCAASGFTFTDYYMHWVRQAPGKGLEWLGFIRNKASGYTPQYSASVKGRFTISRDDSTNSLYLQMNSLKTEDTAIYYCVRGGHAGSNYWYFDVWGQGTLVTVSS
VL: DIQMTQSPSSLSASVGDRVTINCHVSQNINVWLSWYQQKPGEAPKLLIYQASNLHTGVPSRFSGSGSGTGFTLTIRSLQPEDYATYYCQQGQSYPFTFGQGTKLEIK
notes: Humanized from murine VII/20; also called HC2LC4 (CA9hu-1)
Take B5: in the assay with recombinant human CA IX [3], the Kd was 60 nM.

B6: CA9hu-1_HC1LC1 (antibody, V domains shown)
VH: EVQLVESGGGLVQPGGSLRLSCAASGFTFTDYYMHWVRQAPGKGLEWVAFIRNKASGYTPQYSASVKGRFTISRDDSKNSLYLQMNSLKIEDTAVYYCVRGGHAGSNYWYFDVWGQGTTVTVSS
VL: DIQMTQSPSSLSASVGDRVTITCHVSQNINVWLSWYQQKPGKAPNLLIYQASNLHTGVPSRFSGSGSGTHFTLTISSLQPEDIATYYCQQGQSYPFTFGGGTKVEIK
notes: Humanized from murine VII/20; also called HC1LC1 (CA9hu-1)
On to B6, for which the Kd in the assay with recombinant human CA IX [3] was 97 nM.

B7: CA9hu-1_HC1LC2 (antibody, V domains shown)
VH: EVQLVESGGGLVQPGGSLRLSCAASGFTFTDYYMHWVRQAPGKGLEWVAFIRNKASGYTPQYSASVKGRFTISRDDSKNSLYLQMNSLKIEDTAVYYCVRGGHAGSNYWYFDVWGQGTTVTVSS
VL: DIQMTQSPSTLSASVGDRVTITCHVSQNINVWLSWYQQKPGNAPKLLIYQASNLHTGVPSRFSGSGSGTEFTLTIGSLQPDDFVTYYCQQGQSYPFTFGQGTKVEIK
notes: Humanized from murine VII/20; also called HC1LC2 (CA9hu-1)
For the molecule B7, the Kd with recombinant human CA IX [3] was 80 nM.

B8: CA9hu-1_HC1LC3 (antibody, V domains shown)
VH: EVQLVESGGGLVQPGGSLRLSCAASGFTFTDYYMHWVRQAPGKGLEWVAFIRNKASGYTPQYSASVKGRFTISRDDSKNSLYLQMNSLKIEDTAVYYCVRGGHAGSNYWYFDVWGQGTTVTVSS
VL: DIQMTQSPSSLSASVGDRVTITCHVSQNINVWLSWYQQKPGEAPKLLIYQASNLHTGVPSRFSGSGSGTDFTLTISSLQPEDFATYYCQQGQSYPFTFGQGTKLEIK
notes: Humanized from murine VII/20; also called HC1LC3 (CA9hu-1)
In the case of B8, in the assay with recombinant human CA IX [3], the Kd amounted to 96 nM.

B9: CA9hu-1_HC3LC3 (antibody, V domains shown)
VH: QVQLVQSGGGLVQPGRSLRLSCTASGFTFTDYYMHWVRQAPGKGLEWVGFIRNKASGYTPQYSASVKGRFTISRDDSKTIAYLQMNSLKTEDTAVYYCVRGGHAGSNYWYFDVWGQGTLVTVSS
VL: DIQMTQSPSSLSASVGDRVTITCHVSQNINVWLSWYQQKPGEAPKLLIYQASNLHTGVPSRFSGSGSGTDFTLTISSLQPEDFATYYCQQGQSYPFTFGQGTKLEIK
notes: Humanized from murine VII/20; also called HC3LC3 (CA9hu-1)
For the molecule B9, the dissociation constant Kd in the assay with recombinant human CA IX [3] is 82 nM.

B10: CA9hu-1_HC2LC3 (antibody, V domains shown)
VH: EVRLVESGGGLVQPGGSLRLSCAASGFTFTDYYMHWVRQAPGKGLEWLGFIRNKASGYTPQYSASVKGRFTISRDDSTNSLYLQMNSLKTEDTAIYYCVRGGHAGSNYWYFDVWGQGTLVTVSS
VL: DIQMTQSPSSLSASVGDRVTITCHVSQNINVWLSWYQQKPGEAPKLLIYQASNLHTGVPSRFSGSGSGTDFTLTISSLQPEDFATYYCQQGQSYPFTFGQGTKLEIK
notes: Humanized from murine VII/20; also called HC2LC3 (CA9hu-1)
As for B10, in the assay with recombinant human CA IX [3], the Kd came out at 51 nM.

B11: CA9hu-1_HC3LC4 (antibody, V domains shown)
VH: QVQLVQSGGGLVQPGRSLRLSCTASGFTFTDYYMHWVRQAPGKGLEWVGFIRNKASGYTPQYSASVKGRFTISRDDSKTIAYLQMNSLKTEDTAVYYCVRGGHAGSNYWYFDVWGQGTLVTVSS
VL: DIQMTQSPSSLSASVGDRVTINCHVSQNINVWLSWYQQKPGEAPKLLIYQASNLHTGVPSRFSGSGSGTGFTLTIRSLQPEDYATYYCQQGQSYPFTFGQGTKLEIK
notes: Humanized from murine VII/20; also called HC3LC4 (CA9hu-1)
On to B11, for which the Kd in the assay with recombinant human CA IX [3] was 97 nM.

B12: CA9hu-1_HC1LC5 (antibody, V domains shown)
VH: EVQLVESGGGLVQPGGSLRLSCAASGFTFTDYYMHWVRQAPGKGLEWVAFIRNKASGYTPQYSASVKGRFTISRDDSKNSLYLQMNSLKIEDTAVYYCVRGGHAGSNYWYFDVWGQGTTVTVSS
VL: DIQMTQSPSSLSASVGDRVTITCHVSQNINVWLSWYQQKPGKAPKLLIYQASNLHTGVPSRFSGSGSGTDFTFTISSLQPEDIATYYCQQGQSYPFTFGQGTKLEIK
notes: Humanized from murine VII/20; also called HC1LC5 (CA9hu-1)
B12: in the assay with recombinant human CA IX [3], the Kd is 96 nM.

B13: CA9hu-1_HC2LC5 (antibody, V domains shown)
VH: EVRLVESGGGLVQPGGSLRLSCAASGFTFTDYYMHWVRQAPGKGLEWLGFIRNKASGYTPQYSASVKGRFTISRDDSTNSLYLQMNSLKTEDTAIYYCVRGGHAGSNYWYFDVWGQGTLVTVSS
VL: DIQMTQSPSSLSASVGDRVTITCHVSQNINVWLSWYQQKPGKAPKLLIYQASNLHTGVPSRFSGSGSGTDFTFTISSLQPEDIATYYCQQGQSYPFTFGQGTKLEIK
notes: Humanized from murine VII/20; also called HC2LC5 (CA9hu-1)
For B13, the Kd in the assay with recombinant human CA IX [3] was found to be 56 nM.

B14: CA9hu-1_HC1LC4 (antibody, V domains shown)
VH: EVQLVESGGGLVQPGGSLRLSCAASGFTFTDYYMHWVRQAPGKGLEWVAFIRNKASGYTPQYSASVKGRFTISRDDSKNSLYLQMNSLKIEDTAVYYCVRGGHAGSNYWYFDVWGQGTTVTVSS
VL: DIQMTQSPSSLSASVGDRVTINCHVSQNINVWLSWYQQKPGEAPKLLIYQASNLHTGVPSRFSGSGSGTGFTLTIRSLQPEDYATYYCQQGQSYPFTFGQGTKLEIK
notes: Humanized from murine VII/20; also called HC1LC4 (CA9hu-1)
For the molecule B14, in the assay with recombinant human CA IX [3], the equilibrium dissociation constant (Kd) stood at 100 nM.

B15: CA9hu-1_HC2LC2 (antibody, V domains shown)
VH: EVRLVESGGGLVQPGGSLRLSCAASGFTFTDYYMHWVRQAPGKGLEWLGFIRNKASGYTPQYSASVKGRFTISRDDSTNSLYLQMNSLKTEDTAIYYCVRGGHAGSNYWYFDVWGQGTLVTVSS
VL: DIQMTQSPSTLSASVGDRVTITCHVSQNINVWLSWYQQKPGNAPKLLIYQASNLHTGVPSRFSGSGSGTEFTLTIGSLQPDDFVTYYCQQGQSYPFTFGQGTKVEIK
notes: Humanized from murine VII/20; also called HC2LC2 (CA9hu-1)
Regarding B15, the Kd with recombinant human CA IX [3] was 53 nM.

These data come from US20240150490A1 (MABPRO A S, published 2024).
